This passage reports Cell binding and tissue uptake results from publication PMC10388305, “Synthesis and Evaluation of a Monomethyl Auristatin E—Integrin αvβ6 Binding Peptide–Drug Conjugate for Tumor Targeted Drug Delivery” (Journal of Medicinal Chemistry, 2023).

Molecules are shown by their SMILES. Where two headings read alike, the source gives them in different places.

The subject of one data set is BxPC-3 (+) cells. Description: Cell binding assay, BxPC-3. The following applies: 1 h, 37 °C, γ-counter, n = 3. Format: cell-based. The text has this: (§1) Binding to cells with minimal to no expression of integrin αvβ6 was low at 4.4 ± 0.1% to DX3puro cells and 7.9 ± 0.4% to pancreatic MIA PaCa-2 cells. Binding of [^64Cu]PDC-1 to DX3puroβ6 (+) and BxPC-3 (+) was reduced by adding increasing amounts of DOTA-PDC-1, illustrating that the αvβ6-selective uptake could be blocked (Figure S3). Internalization of [^64Cu]-PDC-1 into cells was high with >50% of the bound radioactivity internalized for all cells expressing the integrin αvβ6. In comparison, cell binding of [^64Cu]2 to DX3puroβ6 (+) cells was 58.8 ± 2.3, and 3.3 ± 0.4% to the DX3puro (−) cells.
(§2) Cell binding and internalization assay. Binding and internalization were determined as previously described. […] The fraction of bound radioactivity was determined with a γ-counter (by measuring cell pellet and combined supernatants). To determine the fraction of internalized radioactivity, the cells were re-pelleted, and re-suspended in acidic wash buffer (0.2 M sodium acetate, 0.5 M sodium chloride, pH = 2.5, 300 μL, 4 °C, 5 min) to release surface bound activity, followed by a wash with PBS (300 μL). The internalized fraction was determined with a γ-counter (cell pellet vs. radioactivity released into supernatant). A Wizard 1470 or Wizard 2 2470 automatic γ-counter (Perkin-Elmer, Waltham, MA) was used to measure radioactivity samples. […]

The subject of the next data set is DX3puro (−) cells. Briefly: Cell binding assay, DX3puro. It is filed as cell-based. The following applies: 1 h, 37 °C, γ-counter, n = 3.
Text: as §1, §2

A short description of data set [1]: Blocking biodistribution, paired DX3puroβ6/DX3puro model. Format: in vivo, mice. The following applies: female, athymic nude, mouse, iv, total radioactivity, 4 h p.i., DOTA-2 (50 mg/kg, 205 nmol) i.v. 10 min prior, γ-counter, mean ± SD, n = 2. The protocol:
Aliquots of the formulated [^64Cu]PDC-1 in isotonic 0.9% saline (4.81–5.74 MBq, 1.7–2.1 μg, 0.26–0.31 nmol, 100 μL, pH 7.2) were injected i.v. as described above. Following the conscious uptake period, the mice were anesthetized (5% isoflurane), euthanized, and dissected (n ≥ 3/model/time point [4, 24, and 48 h]; the 48 h time point also included the imaging animals sacrificed after the PET scans). Tissues were collected, washed, weighed, and radioactivity measured in a γ-counter. Calibrated, decay-corrected radioactivity was expressed as the percentage of injected dose per gram of tissue (% ID/g). Data are reported as mean ± SD. The mean weights and standard deviation of the DX3puroβ6/DX3puro paired tumor model biodistribution mice were 24.3 ± 1.4 g at 4 h, 28.2 ± 2.9 g at 24 h, and 27.7 ± 2.6 g at 48 h. The mean weights and standard deviation of the BxPC-3 tumor model biodistribution mice were 25.1 ± 1.9 g at 4 h, 27.0 ± 1.1 g at 24 h and 27.1 ± 3.2 g at 48 h. For in vivo blocking studies, DOTA-2 (50 mg/kg, 205 nmol, 1.4 mg in 100 μL 0.9% saline) was injected i.v. into two animals/tumor model 10 min prior to [^64Cu]PDC-1. The animals were sacrificed after 4 h, tissues collected, washed, weighed, and radioactivity measured in a γ-counter. The mean weights and standard deviation for the blocking mice were 24.6 ± 0 and 27.9 ± 0.3 g for the DX3puroβ6/DX3puro paired and BxPC-3 tumor models, respectively.
Blocking biodistribution data of [64Cu]PDC-1 in paired DX3puroβ6/DX3puro and BxPC-3 tumor models.
Tumor Model DX3puroβ6/DX3puro BxPC-3
Table S6. Blocking biodistribution data of [ 64Cu]PDC-1 in paired DX3puroβ6/DX3puro and BxPC-3 tumor
models. Tissue uptake is expressed as the mean of the percentage of injected dose per gram of tissue ±
SD (n = 2/model, n/a = not applicable. P = 0.53 for DX3puroβ6 vs. DX3puro; P = 0.52 for BxPC-3 vs.

In the case of `CC[C@H](C)[C@@H]([C@@H](CC(=O)N1CCC[C@H]1[C@H](OC)[C@@H](C)C(=O)N[C@H](C)[C@@H](O)c1ccccc1)OC)N(C)C(=O)[C@@H](NC(=O)[C@H](C(C)C)N(C)C(=O)OCc1ccc(NC(=O)[C@H](CCCNC(N)=O)NC(=O)[C@@H](NC(=O)CCOCCOCCNC(=O)CCN2C(=O)CC(SC[C@H](NC(=O)CN3CCN(CC(=O)O)CCN(CC(=O)O)CCN(CC(=O)O)CC3)C(=O)NCCOCCOCCOCCOCCOCCOCCOCCOCCOCCOCCOCCOCCOCCOCCOCCOCCOCCOCCOCCOCCOCCOCCOCCOCCOCCOCCOCCOCCC(=O)N[C@@H](CC(N)=O)C(=O)N[C@@H](C)C(=O)N[C@H](C(=O)N3CCC[C@H]3C(=O)N[C@@H](CC(N)=O)C(=O)N[C@@H](CC(C)C)C(=O)N[C@@H](CCCNC(=N)N)C(=O)NCC(=O)N[C@@H](CC(=O)O)C(=O)N[C@@H](CC(C)C)C(=O)N[C@@H](CCC(N)=O)C(=O)N[C@H](C(=O)N[C@@H](CC(C)C)C(=O)N[C@@H](C)C(=O)N[C@@H](CCC(N)=O)C(=O)N[C@@H](CCCNC(=N)N)C(=O)N[C@H](C(=O)N[C@@H](C)C(=O)N[C@@H](CCCNC(=N)N)C(=O)N[C@H](C(=O)NCCOCCOCCOCCOCCOCCOCCOCCOCCOCCOCCOCCOCCOCCOCCOCCOCCOCCOCCOCCOCCOCCOCCOCCOCCOCCOCCOCCOCCC(N)=O)[C@@H](C)O)C(C)C)C(C)C)C(C)C)C2=O)C(C)C)cc1)C(C)C` (stereo partly shown) [[^64Cu]PDC-1, metal not drawn], the Cell binding in the data set on BxPC-3 (+) cells was 62.0 ± 1.0%; in the data set with DX3puro (−) cells, 4.4 ± 0.1%. Moreover, the tissue uptake at 4 h in data set [1] (DX3puro (αvβ6 −) tumor, read-out: Tumor (αvβ6 −) DX3puro uptake, blocked) worked out at 0.42 ± 0.04 %ID/g; in data set [1] (DX3puroβ6 (αvβ6 +) tumor, read-out: Tumor (αvβ6 +) DX3puroβ6 uptake, blocked) it was 0.39 ± 0.04 %ID/g; in data set [1] (blood, read-out: Blood uptake, blocked), 0.08 ± 0.02 %ID/g; in data set [1] (bone, read-out: Bone uptake, blocked), 0.1 ± 0.03 %ID/g; in data set [1] (brain, read-out: Brain uptake, blocked), 0.02 %ID/g; in data set [1] (gall bladder, read-out: Gall Bladder uptake, blocked) it was 0.28 ± 0.4 %ID/g. Further, the tissue uptake at 4 h in data set [1] (heart, read-out: Heart uptake, blocked) came to 0.17 ± 0.03 %ID/g; in data set [1] (kidney, read-out: Kidney uptake, blocked), 36.4 ± 5.43 %ID/g; in data set [1] (large intestines, read-out: Large Intestines uptake, blocked), 0.51 ± 0.1 %ID/g; in data set [1] (liver, read-out: Liver uptake, blocked), 1.39 ± 0.45 %ID/g; in data set [1] (lung, read-out: Lung uptake, blocked), 0.39 ± 0.09 %ID/g; in data set [1] (muscle, read-out: Muscle uptake, blocked), 0.04 %ID/g. In addition, the tissue uptake at 4 h in data set [1] (pancreas, read-out: Pancreas uptake, blocked) stood at 0.08 ± 0.01 %ID/g; in data set [1] (skin, read-out: Skin uptake, blocked), 0.29 ± 0.02 %ID/g; in data set [1] (small intestines, read-out: Small Intestines uptake, blocked) it was 0.36 ± 0.02 %ID/g; in data set [1] (spleen, read-out: Spleen uptake, blocked), 0.19 ± 0.01 %ID/g; in data set [1] (stomach, read-out: Stomach uptake, blocked), 0.27 ± 0.06 %ID/g.
